Source: US20040176301A1 (CYCLACEL, published 2004)
Where two headings read alike, the source gives them in different places. Ends that are not written are not given here.

Key:
Assay in all cases: cell-based or functional assay
[1] = molecular target: CDK4/Cyclin D1 complex (UniProt P11802 1-303; P24385 1-295)
[2] = molecular target: T1, CDK2/Cyclin E complex (UniProt P24941 1-298; P24864 1-410)
[3] = molecular target: T1, CDK2/Cyclin E complex; remark: listed apart in the source
[4] = molecular target: CDK2/cyclin A (UniProt P24941 1-298; P20248 1-432)

Chain of CDK4/Cyclin D1 complex (P11802 other isoform, or with tags, fused parts or gaps, chain 1 of 2): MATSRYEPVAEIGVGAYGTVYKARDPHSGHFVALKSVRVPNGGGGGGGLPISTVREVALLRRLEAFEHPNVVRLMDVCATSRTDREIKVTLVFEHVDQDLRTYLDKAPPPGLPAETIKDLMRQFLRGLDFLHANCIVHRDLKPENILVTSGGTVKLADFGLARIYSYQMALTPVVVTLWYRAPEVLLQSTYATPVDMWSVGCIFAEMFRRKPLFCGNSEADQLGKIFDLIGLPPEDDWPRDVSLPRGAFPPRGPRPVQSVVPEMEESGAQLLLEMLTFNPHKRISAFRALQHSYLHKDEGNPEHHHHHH
Chain of CDK4/Cyclin D1 complex (P24385 whole entry, chain 2 of 2): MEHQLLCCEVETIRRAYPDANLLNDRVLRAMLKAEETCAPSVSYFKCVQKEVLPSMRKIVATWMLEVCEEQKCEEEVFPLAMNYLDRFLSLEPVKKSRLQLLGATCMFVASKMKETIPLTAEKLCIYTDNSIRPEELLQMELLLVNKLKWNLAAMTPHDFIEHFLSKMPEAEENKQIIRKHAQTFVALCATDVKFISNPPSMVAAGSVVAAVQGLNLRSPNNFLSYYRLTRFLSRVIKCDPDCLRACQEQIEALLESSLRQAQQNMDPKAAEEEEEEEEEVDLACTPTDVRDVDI

Binder	% Inhibition, cyclin D1/CDK4 kinase [1] [%]	IC50, cyclin D1/CDK4 kinase, GST-pRb [1] [µM]	% Inhibition, cyclin E/CDK2 kinase [2] [%]	IC50, cyclin E/CDK2 kinase, GST-pRb [2] [µM]	% Inhibition, cyclin E/CDK2 kinase [3] [%]	IC50, cyclin E/CDK2 kinase [3] [nM]	Relative activity, Kinase Inhibition (CDK2/cyclin A kinase assay, pRb substrate, [ATP] = 100 µM) [4]
AFYHSKRRLIFS-NH2 [AFYHSKRRLIFS-NH2]	72	22	70	11	–	–	–
DFAHSKRRLIFS-NH2 [DFAHSKRRLIFS-NH2]	56	121	80	5.3	–	–	–
DFYHSKRRLIAS-NH2 [DFYHSKRRLIAS-NH2]	35	–	20	–	–	–	–
FYHSKRRLIFSK-NH2 [FYHSKRRLIFSK-NH2]	70	41	70	26	–	–	–
DFYHSARRLIFS-NH2 [DFYHSARRLIFS-NH2]	50	200	80	12.9	–	–	–
SKRRLIFSKRKP-NH2 [SKRRLIFSKRKP-NH2]	40	–	70	46	–	–	–
YHSKRRLIF-NH2 [p21 (151-159) YHSKRRLIF-NH2]	70	–	80	7	–	–	–
DFYHSKRR-NH2 [DFYHSKRR-NH2]	10	–	40	–	–	–	–
DFYHSKRRL-NH2 [DFYHSKRRL-NH2]	10	–	50	200	–	–	–
YHSKRR-NH2 [YHSKRR-NH2]	10	–	40	–	–	–	–
DAYHSKRRLIFS-NH2 [DAYHSKRRLIFS-NH2]	76	37	85	5.9	–	–	–
YHSKR-NH2 [YHSKR-NH2]	10	–	25	–	–	–	–
DFYHSKRRLIFA-NH2 [DFYHSKRRLIFA-NH2]	60	40	70	5.4	–	–	–
YHSKRRL-NH2 [YHSKRRL-NH2]	10	–	30	> 200	–	–	–
YHSKRRLIFS-NH2 [YHSKRRLIFS-NH2]	70	20	80	7.3	–	–	–
DFYHSKRALIFS-NH2 [DFYHSKRALIFS-NH2]	30	–	70	30	–	–	–
DFYHSKR-NH2 [DFYHSKR-NH2]	–	–	50	200	–	–	–
HSKRRLI-NH2 [HSKRRLI-NH2]	10	–	35	–	–	–	–
FYHSKRRLI-NH2 [FYHSKRRLI-NH2]	20	–	45	–	–	–	–
KRRLIFSK-NH2 [KRRLIFSK-NH2]	20	–	60	> 200	–	–	–
FYHSKRRLIFS-NH2 [FYHSKRRLIFS-NH2]	70	22	80	6.8	–	–	–
HSKRRLIFS-NH2 [HSKRRLIFS-NH2]	65	32	80	3.4	–	–	–

Binder	% Inhibition, cyclin D1/CDK4 kinase [1] [%]	IC50, cyclin D1/CDK4 kinase, GST-pRb [1] [µM]	% Inhibition, cyclin E/CDK2 kinase [2] [%]	IC50, cyclin E/CDK2 kinase, GST-pRb [2] [µM]	% Inhibition, cyclin E/CDK2 kinase [3] [%]	IC50, cyclin E/CDK2 kinase [3] [nM]	Relative activity, Kinase Inhibition (CDK2/cyclin A kinase assay, pRb substrate, [ATP] = 100 µM) [4]
HAKRRLFG-NH2 [P21 C-terminus (S153A) LFG HAKRRLFG-NH2]	–	–	–	–	82	900	–
SMTDFYHSKRRL-NH2 [SMTDFYHSKRRL-NH2]	18	–	40	–	–	–	–
FYHSKRRLIF-NH2 [p21 (150-159) FYHSKRRLIF-NH2]	70	–	80	–	–	–	–
MTDFYHSKRRLI-NH2 [MTDFYHSKRRLI-NH2]	11	–	35	–	–	–	–
H-HAKRRLIL-NH2 [H-His-Ala-Lys-Arg-Arg-Leu-Ile-Leu-NH2]	–	–	–	–	–	–	0.3 relative to H-His-Ala-Lys-Arg-Arg-Leu-Ile-Phe-NH2 (=1)
DFYHSKRRLAFS-NH2 [DFYHSKRRLAFS-NH2]	61	53	80	14	–	–	–
DFYHSKRRAIFS-NH2 [DFYHSKRRAIFS-NH2]	30	–	30	–	–	–	–
DFYHSK-NH2 [DFYHSK-NH2]	10	–	45	200	–	–	–
H-KRRLIF-NH2 [H-Lys-Arg-Arg-Leu-Ile-Phe-NH2]	72	> 200	80	1.1	–	–	–
FYHSKRR-NH2 [FYHSKRR-NH2]	20	–	45	> 200	–	–	–
HSKRRLIFSKRK-NH2 [HSKRRLIFSKRK-NH2]	80	34	90	8.7	–	–	–
SKRRLIF-NH2 [SKRRLIF-NH2]	72	54	80	7.7	–	–	–
FYHSKRRL-NH2 [FYHSKRRL-NH2]	20	–	48	> 200	–	–	–
FYHSKR-NH2 [FYHSKR-NH2]	10	–	20	–	–	–	–
DFYHSKARLIFS-NH2 [DFYHSKARLIFS-NH2]	30	–	25	–	–	–	–
TSMTDFYHSKRR-NH2 [TSMTDFYHSKRR-NH2]	30	–	35	–	–	–	–
YHSKRRLIFSKR-NH2 [YHSKRRLIFSKR-NH2]	60	45	80	17.6	–	–	–
HSKRRL-NH2 [HSKRRL-NH2]	–	–	45	> 200	–	–	–
DFYHSKRRLI-NH2 [DFYHSKRRLI-NH2]	20	–	35	–	–	–	–
YHSKRRLI-NH2 [YHSKRRLI-NH2]	15	–	45	> 200	–	–	–
TDFYHSKRRLIF-NH2 [p21 (148-159) TDFYHSKRRLIF-NH2]	72	–	85	2.2	–	–	–
DFYASKRRLIFS-NH2 [DFYASKRRLIFS-NH2]	60	73	80	5.1	–	–	–
